B1: C1r p.S654A (enzymatically inactive proenzyme C1r 'WT') (enzyme, human, UniProt P00736 18-705, looked up)
chain: SIPIPQKLFGEVTSPLFPKPYPNNFETTTVITVPTGYRVKLVFQQFDLEPSEGCFYDYVKISADKKSLGRFCGQLGSPLGNPPGKKEFMSQGNKMLLTFHTDFSNEENGTIMFYKGFLAYYQAVDLDECASRSKSGEEDPQPQCQHLCHNYVGGYFCSCRPGYELQEDTHSCQAECSSELYTEASGYISSLEYPRSYPPDLRCNYSIRVERGLTLHLKFLEPFDIDDHQQVHCPYDQLQIYANGKNIGEFCGKQRPPDLDTSSNAVDLLFFTDESGDSRGWKLRYTTEIIKCPQPKTLDEFTIIQNLQPQYQFRDYFIATCKQGYQLIEGNQVLHSFTAVCQDDGTWHRAMPRCKIKDCGQPRNLPNGDFRYTTTMGVNTYKARIQYYCHEPYYKMQTRAGSRESEQGVYTCTAQGIWKNEQKGEKIPRCLPVCGKPVNPVEQRQRIIGGQKAKMGNFPWQVFTNIHGRGGGALLGDRWILTAAHTLYPKEHEAQSNASLDVFLGHTNVEELMKLGNHPIRRVSVHPDYRQDESYNFEGDIALLELENSVTLGPNLLPICLPDNDTFYDLGLMGYVSGFGVMEEKIAHDLRFVRLPVANPQACENWLRGKNRMDVFSQNMFCAGHPSLKQDACQGDAGGVFAVRDPNTDRWVATGIVSWGIGCSRGYGFYTKVLNYVDWIKKEMEEED
notes: also called C1r WT with additional p.S654A mutation; source: 293-F cells co-transfected with C1s, purified as part of the tetramer as described (19)
B2: C1r p.(D290G) with additional p.S654A mutation (enzyme, human, UniProt P00736 18-705, looked up)
chain: SIPIPQKLFGEVTSPLFPKPYPNNFETTTVITVPTGYRVKLVFQQFDLEPSEGCFYDYVKISADKKSLGRFCGQLGSPLGNPPGKKEFMSQGNKMLLTFHTDFSNEENGTIMFYKGFLAYYQAVDLDECASRSKSGEEDPQPQCQHLCHNYVGGYFCSCRPGYELQEDTHSCQAECSSELYTEASGYISSLEYPRSYPPDLRCNYSIRVERGLTLHLKFLEPFDIDDHQQVHCPYDQLQIYANGKNIGEFCGKQRPPDLDTSSNAVDLLFFTGESGDSRGWKLRYTTEIIKCPQPKTLDEFTIIQNLQPQYQFRDYFIATCKQGYQLIEGNQVLHSFTAVCQDDGTWHRAMPRCKIKDCGQPRNLPNGDFRYTTTMGVNTYKARIQYYCHEPYYKMQTRAGSRESEQGVYTCTAQGIWKNEQKGEKIPRCLPVCGKPVNPVEQRQRIIGGQKAKMGNFPWQVFTNIHGRGGGALLGDRWILTAAHTLYPKEHEAQSNASLDVFLGHTNVEELMKLGNHPIRRVSVHPDYRQDESYNFEGDIALLELENSVTLGPNLLPICLPDNDTFYDLGLMGYVSGFGVMEEKIAHDLRFVRLPVANPQACENWLRGKNRMDVFSQNMFCAGHPSLKQDACQGDAGGVFAVRDPNTDRWVATGIVSWGIGCSRGYGFYTKVLNYVDWIKKEMEEED
notes: also called c.869A>G; source: 293-F cells co-transfected with C1s, purified as part of the tetramer as described (19)

Biological target: the molecule itself
Test: SEC; purified tetramers on Superose 6 Increase 10/300 GL, 50 mM Tris, 150 mM NaCl, pH 7.4, 5 mM EDTA, 0.5 ml/min

Row | Protein | stoichiometry N
1 | B1 | 2
2 | B2 | 2
